Source: patent US20170152313A1 (Novartis, published 2017)
Positions count from the first letter of the chain named.

B1: FF5 (antibody, human IgG1, kappa, L234A L235A, V domains shown)
VH: QVQLVQSGAEVKKPGASVKVSCKASGYTFTDYEVHWVRQAPGQGLEWMGAIHPGSGGAAYVQKFQGRVTMTRDTSISTAYMELSRLRSDDTAVYYCARWLPMDYWGQGTLVTVSS
VL: DIQMTQSPSSVSASVGDRVTITCRASQGINNWLVWYQQKPGKAPKLLLYAASRLESGVPSRFSGSGSGTDYTLTISSLQPEDIATYYCQQYLITPYTFGQGTKLEIKR
notes: Humaneered variant of E2E10, tested as full human IgG; Biotinylated for the neutrophil assay; also called LLG787; LLG787 (FF5)
B2: FF3 (antibody, human IgG1, kappa, L234A L235A, V domains shown)
VH: B1 VH
VL: B1 VL with L48I, R53S, E55Q, T69A, I83F
notes: Humaneered variant of E2E10, tested as full human IgG; Biotinylated for the neutrophil assay; also called LLG785; LLG785 (FF3)
B3: FF6 (antibody, human IgG1, kappa, L234A L235A, V domains shown)
VH: B1 VH with M102I
VL: B1 VL
notes: Humaneered variant of E2E10, tested as full human IgG; Biotinylated for the neutrophil assay; also called LLG788; LLG788 (FF6)
B4: FF1 (antibody, human IgG1, kappa, L234A L235A, V domains shown)
VH: B1 VH with I76T, R85S
VL: B1 VL with L48I, R53S, E55Q, T69A, I83F
notes: Humaneered variant of E2E10, tested as full human IgG (captured or detected with anti-human IgG); Biotinylated for the neutrophil assay; also called LLG783; LLG783 (FF1)
B5: FF4 (antibody, human IgG1, kappa, L234A L235A, V domains shown)
VH: B1 VH
VL: B1 VL with N30T, V34A, L48I, R53I
notes: Humaneered variant of E2E10, tested as full human IgG; the text and claims pair heavy chain 56 with light chain 66; Biotinylated for the neutrophil assay; also called LLG786; LLG786 (FF4)
B6: E2E10 (murine parental) (antibody, IgG1, V domains shown)
VH: QVQLQQSGAELVRPGASVKLSCKALGYTFTDYEMHWVKQTPVHGLEWIGAIHPGSGGAAYIQKFKGKATLTADKSSSTAHMELSSLTSEDSAVYYCTRWLPMDYWGQGTSVTVSS
VL: DIQMTQSSSYLSVSLGGRVTITCKASDHINNWLAWYQQKPGNAPRLLISGATSLETGVPSRFSGSGSGKDYTLSITGLQTEDVATYYCQQYLITPYTFGGGTKLEIK
notes: Mouse hybridoma monoclonal antibody, IgG1 with a kappa light chain; Biotinylated in the SET and neutrophil assays; also called Clone 39.1E2E10; mouse parental

These binders were tested against Human Soluble His9-LOX-1 from R&D Systems (human, UniProt P78380 61-273) (assay: solution equilibrium titration (SET), MSD read-out).
Experimental: (§1) For humanized LOX-1 antibodies FF1, FF3, FF4, FF5, and FF6, the following solution equilibrium titration (SET) assay protocol was used to determine KD values. The assays were performed in a 96-well polypropylene plate (Thermo Scientific, Catalog no. AB-1127) as follows. A constant concentration of LOX-1 antibody (1 pM) was mixed with different concentrations of non-biotinylated human or cynomolgus monkey LOX-1 protein (3-fold serial dilution ranging from 1 nM to 0.017 pM) in SET buffer (PBS, pH 7.4 without CaCl₂ or MgCl₂, Gibco, catalog no. P7949; 0.5% w/v bovine serum albumin, fatty acid free, Calbiochem, catalog no. 26575; and 0.02% v/v Tween-20, Sigma, catalog no. P7949). The final reaction volume was […]. The plate was sealed using an adhesive film (WVR, catalog no. 60941-062) and incubated at 22° C. for 14 hours with constant shaking (300 rpm).
(§2) During the same period, a 384-well streptavidin-coated MSD plate (Meso Scale Discovery, catalog no. L21SA) was blocked by incubating the plate with 50 μL blocking buffer (PBS, pH 7.4, 5% w/v bovine serum albumuin) per well overnight at 4° C. The blocked MSD plate was then washed 3 times with wash buffer (PBS, pH 7.4 and 0.05% v/v Tween-20) using a plate washer (BioTek). Following washing, biotinylated human or cynomolgus monkey soluble LOX-1 protein (25 pM, 15 μL per well) was immobilized on the surface by incubation at 22° C. for one hour with constant shaking (600 rpm). The plate was then washed 3 times as described earlier. In some experiments, non-biotinylated soluble human LOX-1 protein was used (R&D systems, catalog no. 1798-LX-050) was used; in this case the LOX-1 protein was immobilized by overnight incubation at 1 nM concentration in a standard MSD plate (MSD, catalog no. L21XA). The equilibrium binding reactions (15 μL per well) were then applied to the MSD plate with immobilized LOX-1 and incubated for 30 min. The unbound material was removed by washing the plate, and the captured antibody was detected by adding 15 μL per well of a 1:500 dilution of Sulfa-tagged goat anti-human IgG (Mesa Scale Discovery, catalog no. R3AJ-1). The plate was then incubated for one hour with constant shaking (600 rpm). The plate was washed 3 times, and then […] 1×MSD read buffer T(Meso Scale Discovery, catalog no. R92TC-2) was added and the plate was developed using a Sector Imager 6000 (Mesa Scale Discovery).

Row | Kd | Binder
1 | 0.0008 nM | B1
2 | 0.0023 nM | B2
3 | 0.002 nM | B3
4 | 0.0031 nM | B4
5 | 0.0007 nM | B5

These binders were tested against T1, APP-Avi-soluble cynomolgus monkey LOX-1 (61-273) (cynomolgus monkey, biotinylated at the Avi tag when immobilised in the SET assay) (assay: solution equilibrium titration (SET), MSD read-out).
T1 construct: Expressed and purified in the same way as the human protein; also called cynomolgus monkey soluble LOX-1; Cynomolgus Monkey Soluble APP-Avi-LOX-1
Experimental: as §1, §2

T1 sequence (chain, as listed by the source): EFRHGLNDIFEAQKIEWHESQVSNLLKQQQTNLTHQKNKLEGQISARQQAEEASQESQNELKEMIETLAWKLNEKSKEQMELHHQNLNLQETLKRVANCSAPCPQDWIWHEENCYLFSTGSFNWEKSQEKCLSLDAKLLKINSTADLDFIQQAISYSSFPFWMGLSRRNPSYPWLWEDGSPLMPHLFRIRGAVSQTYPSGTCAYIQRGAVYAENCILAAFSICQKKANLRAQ

Row | Kd | Binder
6 | 0.0006 nM | B1
7 | 0.0034 nM | B2
8 | 0.0016 nM | B3
9 | 0.0018 nM | B4
10 | 0.0007 nM | B5

The binders below were run against T2, Human LOX-1 full-length protein (human, UniProt P78380 1-273) (assay: flow cytometry, inhibition of dil-OxLDL binding to huLOX-1/HEK293 cells).
T2 construct: also called huLOX-1/HEK293 cells; human LOX-1 transfected HEK293 cells
Experimental: The huLOX-1/HEK293 cells were resuspended at 1×10⁶ cells/mL and seeded 50 μL per well into a 96-well V-bottom plate (5×10⁴ cells per well). LOX-1 or irrelevant control antibodies in assay medium (DMEM+10% FBS) were then added to the cells. Typical final antibody concentrations ranged from 0.006 μg/mL to 20 μg/mL. The cells were incubated at 37° C. for 1 hour, then washed twice with warm HBSS. Dil-oxLDL (human dil-labeled “High Oxidized” LDL, Kalen Biomedical, catalog number 770262-9; Dil is 1,1′-dioctadecyl-3,3,3′,3′-tetramethylindocarbocyanine perchlorate) in 50 ul assay medium was then added to a final concentration 30 to 100 μg/mL. The cells were then incubated at 37° C. for 2 hours, and then washed twice with FACS buffer (2% FBS in PBS). Cells were then analyzed for intensity of Di-I fluorescence by flow cytometry, as depicted in FIG. 2 and Table 3.

Row | IC50 | Binder
11 | 4.1 nM | B1
12 | 3.3 nM | B2
13 | 5.9 nM | B3
14 | 5.5 nM | B4
15 | 5 nM | B5
16 | 4 nM | B6

The binders below were run against T1, APP-Avi-soluble cynomolgus monkey LOX-1 … (assay: SPR Biacore T200, antibody captured by anti-mouse IgG, cynomolgus soluble LOX-1 as analyte, 1:1 model).
Experimental: For murine LOX-1 antibody E2E10 binding to human and cynomolgus monkey LOX-1, a Biacore T200 was primed with fresh, filtered running buffer (1×HBS-EP+(GE catalog number BR-1006-60)). A CM5 chip (GE catalog number BR-1005-30) was prepared using a mouse antibody capture kit (GE catalog number BR-1008-38) and an amine coupling kit (GE catalog number BR-1000-50). Briefly, a new chip was activated with EDC/NHS at 10 ul/min for 420 sec. Anti-mouse IgG antibody was immobilized at […] 10 mM acetate pH 5.0 at 10 ul/min for 420 sec. The chip surface was deactivated with 1M ethanolamine solution (10 ul/min for 420 sec) and then conditioned three times with 10 mM Glycine-HCl, pH 1.5 (GE catalog number BR-1003-54) at 60 ul/min for 30 sec.
For sample cycles, 1) Ms-anti-Hu LOX-1 mAb was captured on flow cell 2, 3, or 4 for a pre-determined amount of time that allowed for capture of approximately 20RUs at 10 ul/min. Flow cell 1 was used as a reference, 2) running buffer for 30s at 60 ul/min, 3) human soluble LOX-1 or cynomolgus monkey soluble LOX-1 diluted in running buffer at various concentrations (with at least two duplicate samples and multiple buffer blanks for 350 sec at 60 ul/min, with either 750 sec or 3000 sec dissociation time), 4) regeneration buffer for 60 sec at 60 ul/min, 5) running buffer for 35s at 60 ul/min, extra wash with running buffer and including a carry-over control. Data were analyzed using buffer blanks, reference blank, and a 1:1 binding model for curve fitting in order to determine association and dissociation rate constants (ka and kd) and equilibrium binding constants (KD) (see results for E2E10 in Tables 7-8).

Row | Kd | koff | kon | Binder
17 | 0.015 nM | 2.5e-05 s⁻¹ | 1.7e+06 M⁻¹ s⁻¹ | B6

The binders below were run against T2, Human LOX-1 full-length protein (assay: flow cytometry, biotinylated antibody on primary human neutrophils, PE-streptavidin).
Experimental: The resulting cell suspension was carefully transferred to a 50 mL conical tube containing 10 mL Ficoll-Paque, layering the cell suspension on top of the Ficoll-Paque, and the tube was then centrifuged at 1400 rpm (400×g) for 30 minutes at room temperature. The top layer was the discarded. To the resulting cell pellet, 10 mL 0.2% ice-cold sodium chloride was added, and the mixture was incubated for exactly 30 seconds to lyse red blood cells; 10 mL of ice-cold 1.6% sodium chloride was added to restore isotonicity. The cell suspension was then centrifuged at 1200 rpm ([…]) for 5 minutes. The supernantant was then discarded, and the red blood cell lysis procedure repeated once more. The resulting cell pellet was resuspended in FACS buffer (2 mM EDTA, 1% BSA, and 0.2% sodium azide in PBS) at a cell density of 2×10⁶ cells/mL.
The cell suspension containing freshly isolated human neutrophils was transferred (50 ul/well) to wells of a 96-well V-bottom plate (1×10⁵ cells/well) (Costar, catalog number 3894). Blocking buffer (4% normal rabbit serum diluted in FACS buffer (2 mM EDTA, 1% BSA, and 0.2% sodium azide in PBS) (50 ul/well) was added and the plate was incubated on ice for 30 minutes. Biotinylated LOX-1 antibody (10 μl) in FACS buffer was then added to the wells at final concentrations ranging from 1 ng/ml to 5 ug/mL, and the plate was incubated on ice for 30 minutes. The plate was then centrifuged at 1200 rpm (250-300×g) for 3 minutes and supernatant was discarded. The cells were then washed twice with 0.2 mL FACS buffer, and then 0.1 mL of PE-streptavidin (BD Pharmingen catalog number 554061) diluted at 1:250 in FACS buffer was added, and the plate incubated on ice for 30 minutes. The plate was then centrifuged again, supernatant discarded, and the cells washed twice with 0.2 mL FACS buffer. Cells were then resuspended in 0.1 mL of fixing buffer (FACS buffer with 2% paraformaldehyde) and analyzed using a FACS instrument. To determine an EC50 value for neutrophil binding by LOX-1 antibodies, the LOX-1 staining intensity determined by FACS was plotted vs. the concentration of the antibody as shown in FIG. 5 and Table 3.

Row | EC50 | Binder
18 | 0.08 mg/L | B1
19 | 0.13 mg/L | B2
20 | 0.28 mg/L | B3
21 | 0.15 mg/L | B4
22 | 0.23 mg/L | B5
23 | 0.04 mg/L | B6

Each binder was assayed against T2, Human LOX-1 full-length protein (assay: cell-based or functional assay).

Row | Reactive oxygen species (ROS) generation in huLOX-1/HEK293 cells (IC50, nM) | Binder
24 | 4.8 nM | B1
25 | 7.4 nM | B2
26 | 7.9 nM | B3
27 | 6 nM | B4
28 | 5.3 nM | B5
29 | 5.7 nM | B6

These binders were tested against T1, APP-Avi-soluble cynomolgus monkey LOX-1 … (assay: SPR Biacore T200, antibody captured by anti-human IgG, cynomolgus soluble LOX-1 as analyte, 1:1 model).
Experimental: Surface plasmon resonance measurements quantifying the interaction of humanized LOX-1 antibodies with human or cynomolgus monkey LOX-1 were done with the optical biosensor BIAcore T200 on a CM5 chip. Goat-anti-hlgG (gamma) (Invitrogen H10500) was coated at 3,000 RU on the CM5 chip in acetate buffer, pH 4.0. The running buffer used was PBS, pH 7.4 (filtered, degassed). Test antibodies were loaded into individual flow cells at a concentration of 1 ug/mL at a flow rate of 10 uL/min. The target number of IgG capture was between 20-30 RU, in HBS-EP buffer (0.01M HEPES, pH 7.4, 0.15M NaCl, 3 mM EDTA, 0.05% P20). Human or cynomolgus monkey soluble LOX-1 was diluted to a concentration of 33 nM in HBS-EP buffer, then diluted serially (1:3) down to a concentration of 0.137 nM. This represents six different concentrations of human or cynomolgus monkey LOX-1. The antigen was introduced into individual flow cells at a flow rate of 30 uL/min. Parameters for association time were set at 700 seconds and dissociation time was set at 5,400 seconds. Data were analyzed using buffer blanks, reference blank, and a 1:1 binding model for curve fitting in order to determine association and dissociation rate constants (ka and kd) and equilibrium binding constants (KD) (see results for FF1, FF3, FF4, FF5, and FF6 in Tables 7-8).

Row | Kd | koff | kon | Binder
30 | 0.035 nM | 4.8e-05 s⁻¹ | 1.4e+06 M⁻¹ s⁻¹ | B1
31 | 0.023 nM | 1.7e-05 s⁻¹ | 770000 M⁻¹ s⁻¹ | B2
32 | 0.053 nM | 5e-05 s⁻¹ | 950000 M⁻¹ s⁻¹ | B3
33 | 0.012 nM | 1.3e-05 s⁻¹ | 1.1e+06 M⁻¹ s⁻¹ | B4
34 | 0.001 nM | 2.6e-06 s⁻¹ | 2.1e+06 M⁻¹ s⁻¹ | B5
